For 1 substance, Kd, half-life and koff results are on record in paper PMC4618557.

The assay deals with Vasna-Cd4d3+4-bio (zebrafish). As to the kind of experiment: SPR; BIAcore; Vasna-Cd4d3+4-bio immobilised on a streptavidin-coated sensor chip at high and low levels, Cd4d3+4-bio as reference; Islr2-Cd4d3+4-6xHis injected in serial dilutions; HBS-EP buffer, 28 °C; 20 μl/min for equilibrium, 100 μl/min for kinetics (7, 14, 28 μM); purification of the Vasna bait before capture not given.

“Islr2-Cd4d3+4-6xHis (domain or fragment)” gave a Kd of 12.4 µM, a half-life of 0.16 s and a koff of 4.3 s⁻¹.

A word on the Kd: it is a measure of binding affinity in units of concentration. A high value points to weaker binding. The half-life is the time in which the quantity being followed falls by half. A low value points to fast loss. The koff is the rate constant with which the complex falls apart. A higher koff goes with a short-lived complex.
